Experimental data reported in patent US20240076389A1 (NATIONAL RESEARCH COUNCIL OF CANADA, published 2024).

T1: recombinant human AXL extracellular domain, C-terminally His8-tagged (rhAXL-ECD) (human, UniProt P30530 26-451)
T1 construct: Made in CHO cells; also called (rh)AXL-ECD His8; human AXL ECD
T1 sequence: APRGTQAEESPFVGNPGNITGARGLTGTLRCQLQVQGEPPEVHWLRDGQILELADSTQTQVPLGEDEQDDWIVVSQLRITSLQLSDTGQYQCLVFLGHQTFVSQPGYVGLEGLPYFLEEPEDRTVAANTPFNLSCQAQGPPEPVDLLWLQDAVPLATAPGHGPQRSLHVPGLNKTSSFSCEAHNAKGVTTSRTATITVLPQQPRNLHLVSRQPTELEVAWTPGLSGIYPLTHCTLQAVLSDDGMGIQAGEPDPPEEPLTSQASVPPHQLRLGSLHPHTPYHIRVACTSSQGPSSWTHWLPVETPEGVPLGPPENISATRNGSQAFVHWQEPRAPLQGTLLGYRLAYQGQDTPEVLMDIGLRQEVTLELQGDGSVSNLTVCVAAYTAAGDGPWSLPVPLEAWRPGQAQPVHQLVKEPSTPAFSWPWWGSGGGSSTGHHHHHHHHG

T2: mouse AXL extracellular domain (Sino cat. 51026-M08H) (mouse, UniProt Q00993 19-445)
T2 construct: extracellular domain; Bought protein; also called mouse AXL ECD
T2 sequence (looked up): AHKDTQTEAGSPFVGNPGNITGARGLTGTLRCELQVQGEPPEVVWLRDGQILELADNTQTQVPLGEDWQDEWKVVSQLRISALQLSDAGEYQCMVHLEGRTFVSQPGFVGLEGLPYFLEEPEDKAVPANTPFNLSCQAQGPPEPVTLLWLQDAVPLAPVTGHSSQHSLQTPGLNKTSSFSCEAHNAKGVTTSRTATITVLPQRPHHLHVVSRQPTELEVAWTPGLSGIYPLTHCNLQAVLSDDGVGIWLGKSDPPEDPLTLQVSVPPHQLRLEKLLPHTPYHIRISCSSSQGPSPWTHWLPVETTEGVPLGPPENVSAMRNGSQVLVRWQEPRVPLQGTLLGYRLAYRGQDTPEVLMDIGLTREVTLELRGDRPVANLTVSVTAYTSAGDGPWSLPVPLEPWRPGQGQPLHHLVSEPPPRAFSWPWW


Assays:
[1] = biological target: T3, recombinant cynomolgus AXL extracellular domain (cynomolgus); assay: SPR, VHH-Fc captured, AXL ECD flowed, single-concentration kinetics (estimate)
T3 construct: range 1-449; also called Cyno AXL; cyno AXL ECD
Experimental: (§1) For VH Hs and VHH-Fcs, binding to human and cynomolgus AXL ECD was assessed using either a Biacore T200 instrument or a Biacore 3000 instrument. Either human AXL ECD or anti-human Fc antibody was immobilized on a research-grade CM5 series S sensor chip (T200, rhAXL ECD) or a C1 sensor chip (3000, anti-human Fc) using amine coupling in acetate buffer. VHH-Fcs were captured on anti-human Fc surfaces. Either monomeric VHHs (for rhAXL ECD surfaces) or human and cyno AXL ECD (for VHH-Fc surfaces) were flowed over the surfaces at different concentration ranges. Running buffers were HBS-EP (3000) and HBS-EP+(T200). Flow rates were 10-40 ul/min. All binding studies were performed at 25° C. Surfaces were regenerated using 10 mM glycine, pH 1.5.

[2] = biological target: T1, recombinant human AXL extracellular …; assay: as above
Experimental: as §1

[3] = biological target: T2, mouse AXL extracellular domain (Sino …); assay: ELISA on coated mouse AXL ECD (100 ng/well)
Experimental: ELISA. ELISAs against human, cyno and mouse AXL ECDs were conducted by immobilizing 100 ng of each protein in wells of Nunc MaxiSorp microplates overnight. Human AXL (aa 1-451) and cyno AXL (aa 1-449) were produced recombinantly as described in Example 10. Mouse AXL was purchased from Sino (cat. 51026-M08H). The next day, plates were blocked with 5% (w/v) dried milk in PBS. Murine mAbs (either hybridoma- or recombinantly-produced) or VHH-Fcs were diluted in PBS containing 1% BSA and 0.1% Tween-20 and added to wells for 2 hours at room temperature. Wells were washed 5× with PBS containing 0.1% Tween-20, then HRP-labeled protein A (diluted 1:1000 in PBS containing 1% BSA and 0.1% Tween™-20) was added to wells for 1 hour at room temperature. Wells were washed again 5× with PBS/0.1% Tween-20 and developed using TMB substrate. Absorbance was measured at 450 nm. As a positive control for mouse AXL binding, a commercial anti-mouse AXL mAb (clone 175128, R&D Systems MAB8541, rat IgG2A) was used and detected with donkey […] secondary antibody.

Kd [1] [nM]	koff [1] [s⁻¹]	kon [1] [M⁻¹ s⁻¹]	Kd [2] [nM]	koff [2] [s⁻¹]	kon [2] [M⁻¹ s⁻¹]	binding result [3]	Binder
8	0.0072	920000	6	0.0072	1.3e+06	–	NRC-sdAb001-Fc (VHH-human IgG1 Fc fusion) (Fc fusion, VHH fused N-terminally to human IgG1 Fc, made in HEK293 cells; also called NRC-sdAb0001-Fc; NRC-sdAb001-hIgG1; not shown: human IgG1 Fc) QVKLEESGGGLVQAGGSLRLSCTASASISSFDIMGWYRQAPGKQRELVAAITTLDIANYRDSVKGRFTISRDNAKNTVYLQMDSLKPEDTARYHCAAFQSDQNYWGQGTQVTVSS
–	–	–	–	–	–	no binding	hFC-F107-10G1 (antibody, human IgG1, kappa, V domains shown, Chimeric mAb, human IgG1 / human kappa constant regions; also called mAb F107-10G1) VH: EVNLVESGGGVVKPGASLKLSCEASGFTFSNYGMSWVRQTSDKRLEWVASISGGGGRTYYLDNVKGRFIISRENAKNTLYLQMSSLKSEDTALFYCARGARASYFAMDYWGQGSSVTVSS VL: VIVMTQSHKFMSTSVGDRVSITCKASQDVTTAVAWYQQKPGQSPKLLIYWASTRHTGVPDRFTGSGSGTDYSLTISNVQTEDLAFYYCQQHFTTPLTFGAGTKLELKR
